Results taken from the supplement of paper PMC10724198.
± gives the standard deviation of the averaged measurements.

Tested on: Saccharomyces cerevisiae
Assay: protein stability index of tFT-peptide fusion (C-terminal peptide) (PSI (0-1 scale)); higher = more stable (slower turnover)
Details: genetic background: wild type; temperature: 30 C
Experimental: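 Multiplexed protein stability (MPS) profiling in S. cerevisiae. Random 12-aa peptides (tFT-X12 library) are fused to the C-terminus of a sfGFP-mCherry tandem fluorescent timer, after mCherry and a GGGS linker. Cells are FACS-sorted into 8 mCherry/sfGFP bins and deep-sequenced. The protein stability index (PSI) is the read-weighted bin average, scaled from 0 (unstable) to 1 (stable). Only peptides with >10 reads are reported; cells were grown at 30 °C in SC-His with glucose.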
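Further: PSI is a weighted mean of sequencing reads over stability bins, variants kept only with over 10 reads, mCherry proximal and sfGFP distal, peptide attached via GGGS linker.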

| Sequence | protein stability index |
| --- | --- |
| FALPPPPHLNPP | 0.6248 ± 0.0021 |
| GGTGWVGEMGGR | 0.796 ± 0.069 |
| EHHLSRLKSLLR | 0.709 ± 0.058 |
| SQSPPTSPAPHD | 0.706 ± 0.016 |
| WVSPALEALYRK | 0.764 ± 0.07 |
| DKKGRIKIKNRQ | 0.618 ± 0.026 |
| SPHPLPRPTTRP | 0.708 ± 0.12 |
| VWGGVICFGLWM | 0.579 ± 0.02 |
| AQRRHGRSIRRD | 0.787 ± 0.019 |
| ASRADSALGITV | 0.727 ± 0.055 |
| DRGCRRRCVGGG | 0.683 ± 0.011 |
| LLVWPLDQTFRL | 0.698 ± 0.019 |
| KREEKKTKRKKK | 0.712 ± 0.048 |
| DSSAFVPATILD | 0.705 ± 0.026 |
| PSALSEQQANGF | 0.6838 ± 0.0022 |
| HPTLPPHPPPHP | 0.768 ± 0.036 |
| TKKNKTKKGQNK | 0.7099 ± 0.006 |
| TFPSADLYYSLL | 0.74 ± 0.049 |
| FFVRVVGDLRWE | 0.583 ± 0.019 |
| SGEVGVGHWVGG | 0.6812 ± 0.0053 |
| PANQVKTILGRL | 0.694 ± 0.11 |
| SKRQQQKITAQE | 0.67 ± 0.086 |
| RPTTPKCSSPKP | 0.753 ± 0.11 |
| DPPSPLPRVSPP | 0.706 ± 0.068 |
| RLPHCLRPPLSP | 0.669 ± 0.069 |

| Sequence | protein stability index |
| --- | --- |
| VCVQECMPTAWR | 0.704 ± 0.036 |
| PPRHTPTNPPKA | 0.677 ± 0.05 |
| PIQYMLRSSMPR | 0.688 ± 0.065 |
| LPPPLPPRPSPP | 0.728 ± 0.089 |
| GSVLRCFFRKGS | 0.6923 ± 0.0059 |
| DGVIVACWCRRS | 0.66 ± 0.021 |
| FACLGPLRRRLG | 0.682 ± 0.012 |
| FCCTPAPVPPST | 0.689 ± 0.016 |
| PVTRRDVDLPPP | 0.706 ± 0.039 |
| PPPTRPPPPPSL | 0.704 ± 0.075 |
| LFLFSSAGYPNS | 0.661 ± 0.1 |
| KTNKDKKRTKTV | 0.714 ± 0.2 |
| KIKKKKKNKTNR | 0.676 ± 0.014 |
| VFSLPFPSRSPL | 0.805 ± 0.028 |
| KKNKGKGREVRI | 0.67 ± 0.049 |
| RLAVQCVCQIGI | 0.621 ± 0.019 |
| GLGGRGGAVGEW | 0.67252 ± 0.0004 |
| FAECVCVVCPLV | 0.6319 ± 0.0053 |
| SPPPILPSSPSS | 0.698 ± 0.087 |
| RVANCGDGSIAV | 0.652 ± 0.053 |
| PSPPRAPSTPLI | 0.744 ± 0.06 |
| WPPRPPRPSSTL | 0.724 ± 0.011 |
| TLWENEKNNKHG | 0.705 ± 0.024 |
| PSWPRLSFRPST | 0.689 ± 0.022 |
| CEFGGEEINQTV | 0.6951 ± 0.0015 |

| Sequence | protein stability index |
| --- | --- |
| VEFWGAVCNDCL | 0.706 ± 0.043 |
| LPLWQHPTKPVH | 0.64238 ± 8.1e-05 |
| SVVLGSVHVLTR | 0.661 ± 0.015 |
| SLSFPPNTFSFP | 0.738 ± 0.059 |
| VLAGLTWQIAEL | 0.668 ± 0.023 |
| VSTENDGCGTPR | 0.712 ± 0.022 |
| RKDNRRIMIKKR | 0.648 ± 0.015 |
| RLSPPGFRLGLF | 0.517 ± 0.029 |
| NLRSIYKLGRLT | 0.549 ± 0.011 |
| PILPPVPPRASS | 0.7029 ± 0.0053 |
| EIRIISGIDDRR | 0.628 ± 0.077 |
| AYKGTPTCKTRR | 0.689 ± 0.1 |
| ILLYSPFGPPSS | 0.673 ± 0.026 |
| WFDGGGWLLFVV | 0.557 ± 0.011 |
| CGSVERAEKGHI | 0.662 ± 0.025 |
| GFGFMGLRFGVD | 0.762 ± 0.13 |
| PLRPPAPRHSPP | 0.723 ± 0.013 |
| SEVRLMSVTSHS | 0.7417 ± 0.0038 |
| VYRRWIKGKGRV | 0.675 ± 0.026 |
| SGGGRAECGEVR | 0.702 ± 0.021 |
| LVEEGKKLTSKF | 0.711 ± 0.078 |
| LFVSPRPFRSVL | 0.7495 ± 0.0063 |
| LPPPYPRPPPFR | 0.68 ± 0.005 |
| LRVNGIVTVSGF | 0.749 ± 0.13 |
| IDSKSPTHPLHQ | 0.71 ± 0.059 |

| Sequence | protein stability index |
| --- | --- |
| GGPTCSSSCDPV | 0.67 ± 0.038 |
| LYTNLIGFNSWI | 0.713 ± 0.037 |
| LLLLDLWLPSVL | 0.76 ± 0.059 |
| GVGSGNMEEEGQ | 0.679 ± 0.034 |
| LLGVRLGVLSFA | 0.58 ± 0.01 |
| SGCLGGGRGGWG | 0.657 ± 0.013 |
| LSRHSRSILPSL | 0.726 ± 0.056 |
| LMSGFFCGLLYA | 0.6181 ± 0.0029 |
| NYSKPSYLVRAK | 0.697 ± 0.053 |
| VPISLSVVVLPV | 0.569 ± 0.017 |
| LCLFGGLVAFWC | 0.585 ± 0.027 |
| LLDSLCEKTFRS | 0.677 ± 0.032 |
| HLIVPESVVHDL | 0.747 ± 0.18 |
| SAPGIGFYTKSL | 0.653 ± 0.064 |
| APPPPAVPHYRP | 0.667 ± 0.012 |
| GGCGLGGVLEVG | 0.676 ± 0.017 |
| RSRGSTKLKNLI | 0.817 ± 0.056 |
| VSLCGSGLGLWV | 0.682 ± 0.033 |
| ASSFEGVWCTGC | 0.721 ± 0.0093 |
| QRVIELVLISNM | 0.539 ± 0.043 |
| PLARLRFRSVVG | 0.6678 ± 0.0038 |
| GTGMMGFFWIVA | 0.571 ± 0.069 |
| PTNPPLSQPPPQ | 0.702 ± 0.039 |
